Target: protein A (UniProt P38507 37-327)
Assay: ForteBio Octet HTX (filing: SPR), HCAb on AHC sensors, 1:1 model

B1: CNG-HSA-101 (VHH)
VHH: KVQLVESGGGLVQPGGSLRLSCAASGFTFSSFGMTWVRQAPGKGLEWVSSISGSGSDTLYADSVRGRFTISRDNSKNTLYLQMNSLRAEDTAVYYCTIGGSLSPSSQGTLVTVSS
Kd: ≤ 1.84 nM
koff: ≤ 0.0002 s⁻¹

From US20230032087A1 (CULLINAN ONCOLOGY, published 2023)
